To fix the notation:
B1: NRC3_wobSeed133_DR5_A14C_o1 (dsDNA)
DNA 1: GCCGTCCAAGGTCCATGCTAGGTCAGTGAAAGCATTGCGATTGACAGCGTAGAATGAAGG
DNA 2: CCTTCATTCTACGCTGTCAATCGCAATGCTTTCACTGACCTAGCATGGACCTTGGACGGC
B2: NRC3_wobSeed40_DR1_G10A_o1 (dsDNA)
DNA 1: GCTAGCCTAAGTCATGGGCCAGTATACCACGCGAACGCGATTGACAGCGTAGAATGAAGG
DNA 2: CCTTCATTCTACGCTGTCAATCGCGTTCGCGTGGTATACTGGCCCATGACTTAGGCTAGC
B3: NRC3_wobSeed134_DR5_A14G_o1 (dsDNA)
DNA 1: GCGCTGCTAGGTCGACTGATGGTCAGCTAAAGCTCGGCGATTGACAGCGTAGAATGAAGG
DNA 2: CCTTCATTCTACGCTGTCAATCGCCGAGCTTTAGCTGACCATCAGTCGACCTAGCAGCGC
B4: NRC3_wobSeed61_DR2_G11C_o1 (dsDNA)
DNA 1: GCCGTCCAAGCTCAGCAGGTCAGTGAAAGCGACGTGGCGATTGACAGCGTAGAATGAAGG
DNA 2: CCTTCATTCTACGCTGTCAATCGCCACGTCGCTTTCACTGACCTGCTGAGCTTGGACGGC
B5: NRC3_wobSeed64_DR2_A9C_o1 (dsDNA)
DNA 1: GCTAGCCTCGGTCATTGGGCCAGTATAGTACGCATCGCGATTGACAGCGTAGAATGAAGG
DNA 2: CCTTCATTCTACGCTGTCAATCGCGATGCGTACTATACTGGCCCAATGACCGAGGCTAGC
B6: NRC3_wobSeed99_DR4_A24T_o1 (dsDNA)
DNA 1: GCTCTCGGAGGACACGAAAGGTCTGAGCTCGACATCGCGATTGACAGCGTAGAATGAAGG
DNA 2: CCTTCATTCTACGCTGTCAATCGCGATGTCGAGCTCAGACCTTTCGTGTCCTCCGAGAGC
B7: NRC3_wobSeed99_DR4_G20A_o1 (dsDNA)
DNA 1: B6 DNA 1 with G20A, T24A
DNA 2: B6 DNA 2 with A37T, C41T
B8: NRC3_wobSeed102_DR4_G11A_o1 (dsDNA)
DNA 1: GCCCTAGCAGACCAATCTGGGTCACTCAAGGCTTGAGCGATTGACAGCGTAGAATGAAGG
DNA 2: CCTTCATTCTACGCTGTCAATCGCTCAAGCCTTGAGTGACCCAGATTGGTCTGCTAGGGC
B9: NRC3_wobSeed141_DR5_T5A_o1 (dsDNA)
DNA 1: GCAGACAAAGTTCAGGACGAGGTAACGTAAAGCACGGCGATTGACAGCGTAGAATGAAGG
DNA 2: CCTTCATTCTACGCTGTCAATCGCCGTGCTTTACGTTACCTCGTCCTGAACTTTGTCTGC
B10: NRC3_wobSeed44_DR1_A14T_o1 (dsDNA)
DNA 1: GCTGAATGAGGTTTAAGATCAGGGAACGTGGCGTCGGCGATTGACAGCGTAGAATGAAGG
DNA 2: CCTTCATTCTACGCTGTCAATCGCCGACGCCACGTTCCCTGATCTTAAACCTCATTCAGC
B11: NRC3_random_hg19_303_o1 (dsDNA)
DNA 1: GCAAGATCTCTACAATGAATTGTACCAATGCTCCAGGCGATTGACAGCGTAGAATGAAGG
DNA 2: CCTTCATTCTACGCTGTCAATCGCCTGGAGCATTGGTACAATTCATTGTAGAGATCTTGC
B12: NRC3_wobSeed38_DR1_G11T_o1 (dsDNA)
DNA 1: GCCCTGCTAGTTCAATGGTCAGCTAAAGCAGCTCGCGCGATTGACAGCGTAGAATGAAGG
DNA 2: CCTTCATTCTACGCTGTCAATCGCGCGAGCTGCTTTAGCTGACCATTGAACTAGCAGGGC
B13: NRC3_wobSeed38_DR1_A9C_o1 (dsDNA)
DNA 1: B12 DNA 1 with A9C, T11G
DNA 2: B12 DNA 2 with A50C, T52G
B14: NRC3_wobSeed82_DR3_C13G_o1 (dsDNA)
DNA 1: GCATCGAAAGGTGGACGAGGTGAGTATACACCGTTTGCGATTGACAGCGTAGAATGAAGG
DNA 2: CCTTCATTCTACGCTGTCAATCGCAAACGGTGTATACTCACCTCGTCCACCTTTCGATGC
B15: NRC3_random_hg19_167_o1 (dsDNA)
DNA 1: GCTTTGAAGACACTGAAGGAGTGAGCCATTTGGATCGCGATTGACAGCGTAGAATGAAGG
DNA 2: CCTTCATTCTACGCTGTCAATCGCGATCCAAATGGCTCACTCCTTCAGTGTCTTCAAAGC
B16: NRC3_wobSeed47_DR1_G11C_o1 (dsDNA)
DNA 1: GCGGAACGAGCGCAAAGTTGATAGCATCTGTCGACGGCGATTGACAGCGTAGAATGAAGG
DNA 2: CCTTCATTCTACGCTGTCAATCGCCGTCGACAGATGCTATCAACTTTGCGCTCGTTCCGC
B17: NRC3_random_hg19_367_o1 (dsDNA)
DNA 1: GCATCTGTGTAACCAGCACCACAGTTAAGATACAGAGCGATTGACAGCGTAGAATGAAGG
DNA 2: CCTTCATTCTACGCTGTCAATCGCTCTGTATCTTAACTGTGGTGCTGGTTACACAGATGC
B18: NRC3_wobSeed14_DR0_G11T_o1 (dsDNA)
DNA 1: GCCCTGCTAGTTCATGGTCAGCTAATCTACAGTATGGCGATTGACAGCGTAGAATGAAGG
DNA 2: CCTTCATTCTACGCTGTCAATCGCCATACTGTAGATTAGCTGACCATGAACTAGCAGGGC
B19: NRC3_wobSeed2_DR0_A20T_o1 (dsDNA)
DNA 1: GCCCTAGTTGGTCAAGGTCTCACACGCTATAGGTACGCGATTGACAGCGTAGAATGAAGG
DNA 2: CCTTCATTCTACGCTGTCAATCGCGTACCTATAGCGTGTGAGACCTTGACCAACTAGGGC
B20: NRC3_wobSeed90_DR3_C13A_o1 (dsDNA)
DNA 1: GCCATACAGGGTAAGCTAGGCCAGAGTAGGGACGGCGCGATTGACAGCGTAGAATGAAGG
DNA 2: CCTTCATTCTACGCTGTCAATCGCGCCGTCCCTACTCTGGCCTAGCTTACCCTGTATGGC
B21: NRC3_wobSeed48_DR1_G5T_o1 (dsDNA)
DNA 1: GCCCTAGTAGGTTATGGGGCATTCAGGCAACGGTGAGCGATTGACAGCGTAGAATGAAGG
DNA 2: CCTTCATTCTACGCTGTCAATCGCTCACCGTTGCCTGAATGCCCCATAACCTACTAGGGC
B22: NRC3_wobSeed137_DR5_A14C_o1 (dsDNA)
DNA 1: GCATATGTAGGTTCCATCCGGGTCATTCAGGCTATGGCGATTGACAGCGTAGAATGAAGG
DNA 2: CCTTCATTCTACGCTGTCAATCGCCATAGCCTGAATGACCCGGATGGAACCTACATATGC
B23: NRC3_wobSeed42_DR1_A14T_o1 (dsDNA)
DNA 1: GCTATACAGGGTCTAAGGCCAGAGTACGAATGTCGAGCGATTGACAGCGTAGAATGAAGG
DNA 2: CCTTCATTCTACGCTGTCAATCGCTCGACATTCGTACTCTGGCCTTAGACCCTGTATAGC
B24: NRC3_random_hg19_44_o1 (dsDNA)
DNA 1: GCATTTGAGATCTCAGTTTCTGCATACTGAATCACCGCGATTGACAGCGTAGAATGAAGG
DNA 2: CCTTCATTCTACGCTGTCAATCGCGGTGATTCAGTATGCAGAAACTGAGATCTCAAATGC
B25: NRC3_wobSeed4_DR0_G16T_o1 (dsDNA)
DNA 1: GCCCTACTGGGCCAATGTCATTGATCAGTCAAAGCAGCGATTGACAGCGTAGAATGAAGG
DNA 2: CCTTCATTCTACGCTGTCAATCGCTGCTTTGACTGATCAATGACATTGGCCCAGTAGGGC
B26: NRC3_wobSeed6_DR0_G15C_o1 (dsDNA)
DNA 1: GCCCTAGCAGGCCACGGTCACTCAAGCATTTCGCTTGCGATTGACAGCGTAGAATGAAGG
DNA 2: CCTTCATTCTACGCTGTCAATCGCAAGCGAAATGCTTGAGTGACCGTGGCCTGCTAGGGC
B27: NRC3_wobSeed15_DR0_G10T_o1 (dsDNA)
DNA 1: GCCGAACTATGTCAAGGACAGTGAATCTCCGCACGCGCGATTGACAGCGTAGAATGAAGG
DNA 2: CCTTCATTCTACGCTGTCAATCGCGCGTGCGGAGATTCACTGTCCTTGACATAGTTCGGC
B28: NRC3_wobSeed101_DR4_A14T_o1 (dsDNA)
DNA 1: GCCCTTACGGGTCTCTCCAGGTTATAGCATCGGAGTGCGATTGACAGCGTAGAATGAAGG
DNA 2: CCTTCATTCTACGCTGTCAATCGCACTCCGATGCTATAACCTGGAGAGACCCGTAAGGGC
B29: NRC3_wobSeed122_DR5_A20T_o1 (dsDNA)
DNA 1: GCGCTAGTTGGTCAGTAAATGGTCACACACCGGTCGGCGATTGACAGCGTAGAATGAAGG
DNA 2: CCTTCATTCTACGCTGTCAATCGCCGACCGGTGTGTGACCATTTACTGACCAACTAGCGC
B30: NRC3_random_hg19_239_o1 (dsDNA)
DNA 1: GCATACATAAGGTGATTTGGCTACATGTATAGACAGGCGATTGACAGCGTAGAATGAAGG
DNA 2: CCTTCATTCTACGCTGTCAATCGCCTGTCTATACATGTAGCCAAATCACCTTATGTATGC
B31: NRC3_wobSeed50_DR2_A17T_o1 (dsDNA)
DNA 1: GCCCTAGTTGGTCAGGTGGTCACACACCGGATATGAGCGATTGACAGCGTAGAATGAAGG
DNA 2: CCTTCATTCTACGCTGTCAATCGCTCATATCCGGTGTGTGACCACCTGACCAACTAGGGC

In article PMC6555819, “Comprehensive study of nuclear receptor DNA binding provides a revised framework for understanding receptor specificity” one finds binding signal data, which are given here for 31 molecules.

Where a chain is given by its changes, count along the chain named.

Chain of PPARa:RXRa (Q07869 whole entry, chain 1 of 2): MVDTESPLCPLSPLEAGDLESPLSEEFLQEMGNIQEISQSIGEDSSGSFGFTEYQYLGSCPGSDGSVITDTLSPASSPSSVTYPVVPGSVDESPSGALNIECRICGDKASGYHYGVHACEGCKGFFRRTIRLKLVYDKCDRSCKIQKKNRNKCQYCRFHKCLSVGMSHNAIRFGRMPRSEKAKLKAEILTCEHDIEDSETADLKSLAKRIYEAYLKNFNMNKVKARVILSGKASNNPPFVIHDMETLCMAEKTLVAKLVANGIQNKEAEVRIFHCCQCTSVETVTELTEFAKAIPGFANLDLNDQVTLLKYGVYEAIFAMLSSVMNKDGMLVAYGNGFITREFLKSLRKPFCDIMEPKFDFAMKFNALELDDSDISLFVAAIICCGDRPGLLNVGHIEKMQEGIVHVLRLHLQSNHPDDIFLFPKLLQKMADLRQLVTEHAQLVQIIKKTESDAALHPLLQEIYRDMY
Chain of PPARa:RXRa (P19793 whole entry, chain 2 of 2): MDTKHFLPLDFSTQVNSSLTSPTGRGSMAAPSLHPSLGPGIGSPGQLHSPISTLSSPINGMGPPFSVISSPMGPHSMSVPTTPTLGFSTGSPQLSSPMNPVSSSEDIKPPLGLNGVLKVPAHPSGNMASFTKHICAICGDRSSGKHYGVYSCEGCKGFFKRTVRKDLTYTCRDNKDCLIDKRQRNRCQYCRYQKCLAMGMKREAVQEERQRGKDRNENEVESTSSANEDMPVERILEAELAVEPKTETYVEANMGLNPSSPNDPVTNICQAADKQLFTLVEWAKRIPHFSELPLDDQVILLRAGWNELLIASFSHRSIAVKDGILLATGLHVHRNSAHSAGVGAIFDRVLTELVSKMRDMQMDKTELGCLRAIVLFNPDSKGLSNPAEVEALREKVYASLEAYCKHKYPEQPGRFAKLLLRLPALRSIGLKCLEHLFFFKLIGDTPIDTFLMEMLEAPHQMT

The target of the data set is PPARa:RXRa (Homo sapiens, UniProt Q07869;P19793 full;full). The data set can be described thus: no ligand; PBM; 270 nM : 90 nM RXRa; PBS pH 7.4, 2% milk, 0.02% Triton X-100, 1 mM DTT, BSA, 0.4 mg/ml salmon testes DNA. The conditions noted are these: tags: GST kept;His cleaved; copies: 1;1; label: surface-attached array probe. The essentials:
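Antibodies against each partner of ligand-free nuclear receptor dimers (one per run) detected binding on custom Agilent 4×180K protein-binding microarrays after 1 h incubation. The double-stranded probes had 34-nt variable regions carrying direct-repeat seeds, single-nucleotide variants, half-site ablations and random human genomic background sequences. Binding z-scores, from regression-normalized fluorescence, use the random background probes as reference.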
On to B1, for which the binding signal was 0.33 PBM z-score against 500 random probes.

Regarding B2, the binding signal is -0.06 PBM z-score against 500 random probes.

For B3, the binding signal is 0.01 PBM z-score against 500 random probes.

Consider B4, for which the binding signal is 0.35 PBM z-score against 500 random probes.

On to B5, for which the binding signal was 0.15 PBM z-score against 500 random probes.

As for B6, the binding signal is 0.43 PBM z-score against 500 random probes.

Take B7: the binding signal was 0.36 PBM z-score against 500 random probes.

Regarding B8, the binding signal is 3.03 PBM z-score against 500 random probes.

With B9, the binding signal was 3 PBM z-score against 500 random probes.

As to B10, the binding signal is 0.18 PBM z-score against 500 random probes.

B11: the binding signal is -0.05 PBM z-score against 500 random probes.

Regarding B12, the binding signal is 0.22 PBM z-score against 500 random probes.

Consider B13, for which the binding signal is 0.02 PBM z-score against 500 random probes.

For B14, the binding signal is 0.49 PBM z-score against 500 random probes.

Regarding B15, the binding signal was -0.13 PBM z-score against 500 random probes.

For the molecule B16, the binding signal was 0.32 PBM z-score against 500 random probes.

Regarding B17, the binding signal is -0.28 PBM z-score against 500 random probes.

As to B18, the binding signal was 0.23 PBM z-score against 500 random probes.

On to B19, for which the binding signal was 0.37 PBM z-score against 500 random probes.

With B20, the binding signal was -0.35 PBM z-score against 500 random probes.

Consider B21, for which the binding signal was 3.05 PBM z-score against 500 random probes.

Take B22: the binding signal was 3.09 PBM z-score against 500 random probes.

In the case of B23, the binding signal is 0.39 PBM z-score against 500 random probes.

For the molecule B24, the binding signal was -0.2 PBM z-score against 500 random probes.

Turning to B25, the binding signal is 0.47 PBM z-score against 500 random probes.

For B26, the binding signal was 0.43 PBM z-score against 500 random probes.

For B27, the binding signal was 0.36 PBM z-score against 500 random probes.

As for B28, the binding signal was 0.07 PBM z-score against 500 random probes.

Consider B29, for which the binding signal was 0.26 PBM z-score against 500 random probes.

Regarding B30, the binding signal was 0.32 PBM z-score against 500 random probes.

Regarding B31, the binding signal is 0.4 PBM z-score against 500 random probes.
